Residue numbers refer to the chain shown, from its start.

B1: S009-F3.7.3 (antibody, human IgG1, kappa, V domains shown)
VH: EVNFEESGGGLVQPGGSMKLSCVASGFTFSNYWMNWVRQSPEKGLEWVAQIRLKSDNYATHYAESVKGRFTISRDDFKSSVYLQMNNLRAEDTGIYYCTVGTGGYWGQGTTLTVSS
VL: DIVLTQSPASLAMSLGKRATISCRASESVSIVGTNVIHWFQQKPGQPPKLLIYHASNLETGVPARFSGSGSGTDFTLTIDPVEEDDVAIYHCLQSRKIPWTFGGGTKLEIKR
notes: Human-murine chimeric antibody: murine VH/VL on human IgG1 heavy and kappa light constant regions
B2: S009-F3.16.1 (antibody, human IgG1, kappa, V domains shown)
VH: B1 VH with N3K, T71S, F77S, T99S
VL: B1 VL with M13L, L15P, V32I, N35D, G72R, H91Y
notes: as for B1
B3: S009-F3.51.8 (antibody, human IgG1, kappa, V domains shown)
VH: QVQLQQSGAELVRPGASVTLSCKASGYTFTDYEMHWVKQTPVHGLEWIGGFDPETGGTAHNQKFKGKAILTADKSSSTAYMELRSLTSEDSAVYYCSNYGSIWGDCWGQGTSVTVSS
VL: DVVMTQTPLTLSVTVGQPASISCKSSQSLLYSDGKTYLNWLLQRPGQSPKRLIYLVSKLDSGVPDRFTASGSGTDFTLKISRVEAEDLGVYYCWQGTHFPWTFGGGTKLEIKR
notes: Human-murine chimeric antibody on human IgG1/kappa constant regions
B4: S009-F3.38.10 (antibody, human IgG1, kappa, V domains shown)
VH: EVQLQQSGPVLVKPGASVKMSCEASGYIFTDYYMNWVKKSHGKSLEWIGVINPKNGVISHNQKFKGKATLTVDKSSNTAYMELSSLTSEDSAVYYCANYGSRFYAMDYWGQGTSVTVSS
VL: DVVMTQTPLSLPVSLGDQASISCRSSQSLIHSDGNTYLQWYLQKSGQSPKLLIYKVSNRFSGVPDRFSGSGSGTDFTLKISRVETEDLGVYFCSQTTHVPFTFGSGTKLEIKR
notes: as for B1
B5: S009-F3.45.21 (antibody, human IgG1, kappa, V domains shown)
VH: DVQLQESGPGLVKPSQSLSLTCSVTGDSITSGYYWNWIRQFPGNKLEWMGFIRFDGTNNYNPSLKNRISITRDTSKNQFFLKLNSVTTEDTATYYCAREGSYAPAWFAYWGQGTLVTVSA
VL: QIVLTQSPAIMSASPGEKVTMTCSASSSLSYMYWYQQKPGSSPRLLIYDTSNLASGVPVRFSGSGSGTSYSLTISRMEAEDAATYYCQQWSSYPPTFGGGTKLEIKR
notes: as for B1
B6: S009-F3-63.5 (antibody, human IgG1, kappa, V domains shown)
VH: QVQLQQSGAELVRPGASVTLSCKASGYTFTDYEMHWVKQTPVHGLEWIGGIDPETGDTAYNQQFKGKAILTADRSSSTAYMELRSLTSEDSAVYYCTNYASSREDYWGQGTTLTVSS
VL: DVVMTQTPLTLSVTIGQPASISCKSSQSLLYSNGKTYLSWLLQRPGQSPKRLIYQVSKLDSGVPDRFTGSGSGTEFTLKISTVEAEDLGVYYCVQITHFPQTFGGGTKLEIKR
notes: as for B1
B7: S009-F3.23.1 (antibody, human IgG1, kappa, V domains shown)
VH: QVQLQQSGADLVRPGASVTLSCKASGYTFTDYEMHWVKQTPVHGLEWIGAIDPETGDTVYNQNFKGKAILTADKSSSTAYMELRSLTSEDSAVYYCTRYGYDWGWGQGTTLTVSS
VL: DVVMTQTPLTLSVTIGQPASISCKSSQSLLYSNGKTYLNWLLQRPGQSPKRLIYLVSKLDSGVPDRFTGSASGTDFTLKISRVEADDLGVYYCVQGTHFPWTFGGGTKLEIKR
notes: as for B1
B8: S009-F3.74.20 (antibody, human IgG1, kappa, V domains shown)
VH: RVQLQQSGAELVRPGASVTLSCKASGYTFTDSEMHWVKQTPVHGLEWIGAIDPEIDGTAYNQNFRDKAILTADKSSSTAYMELRSLTSEDSAVYYCTTYFGSGYGYFDVWGTGTTVTVSS
VL: DVVMTQTPLSLSVSLGDQASISCRSSQSLVYSNGNTYLHWFLQKPGQSPKLLIYKVSNRFSGVPDRFSGSGSGTDFTLKINRVEAEDLGVYFCSQSTHIPFTFGAGTKLELKR
notes: as for B1

The target of one assay is T1, human MSLN-R1-his protein (human, UniProt Q13421 296-390).
T1 construct: Self-made in HEK293E cells; also called human MSLN-R1 protein; hMSLN-R1-his; not shown: His tag
T1 chain: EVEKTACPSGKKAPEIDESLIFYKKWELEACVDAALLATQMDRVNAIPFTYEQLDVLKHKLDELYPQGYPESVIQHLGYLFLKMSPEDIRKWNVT
As to the kind of experiment: ELISA on coated antigen, antibody 10 nM. (ELISA stands for enzyme-linked immunosorbent assay.)
The molecule B1 registered an OD450 of 0.08 OD450.
As for B2, the OD450 turned out to be 0.08 OD450.
Molecule B3 had an OD450 of 0.06 OD450.
Take B4: the OD450 turned out to be 0.07 OD450.
B5 registered an OD450 of 0.11 OD450.
As to B6, the OD450 was determined as 0.07 OD450.
Same read-out and setting: the value for B7 was 0.06 OD450.
Same read-out and setting: under B8 stands 0.08 OD450.

Another assay deals with T1, human MSLN-R1-his protein. In words: ELISA on coated antigen, antibody 0.01 nM.
Method: (§1) The plate was sealed with a plastic film and incubated at 4° C. overnight. The next day, the plate was washed twice with PBST, and a blocking buffer [PBS+2% (w/w) BSA] was added for blocking at room temperature for 2 h. The blocking buffer was discarded, and a chimeric antibody or negative control antibody serially diluted from 100 nM was added at 50 μL/well. After incubation at 37° C. for 2 h, the plate was washed 3 times with PBST. […] After incubation at 37° C. for 2 h, the plate was washed 5 times with PBST. A TMB substrate was added at 50 μL/well for incubation at room temperature for 5-10 min, and then a stop solution (1.0 N HCl) was added at 50 μL/well.
Consider B1, for which the OD450 was found to be 0.06 OD450.
B2 registered an OD450 of 0.06 OD450.
Regarding B3, the OD450 came to 0.07 OD450.
B4 showed an OD450 of 0.06 OD450.
The molecule B5 gave an OD450 of 0.06 OD450.
In turn, B6 registered an OD450 of 0.05 OD450.
Still for that read-out and setting: the value for B7 was 0.06 OD450; that for B8 was 0.06 OD450.

Another assay deals with T2, human MSLN-FL-his protein (human, UniProt Q13421 296-580).
T2 construct: Self-made in HEK293E cells; also called human MSLN full-length protein; hMSLN-FL-his; not shown: His tag
As to the kind of experiment: ELISA on coated antigen, antibody 0.001 nM.
Molecule B1 gave an OD450 of 0.06 OD450.
The same measure, in the same setting: the value for B2 was 0.06 OD450; that for B3 was 0.14 OD450; that for B4 was 0.06 OD450.
In the case of B5, the OD450 turned out to be 0.35 OD450.
Still for that read-out and setting: under B6 stands 0.14 OD450.
As to B7, the OD450 amounted to 0.15 OD450.
Same read-out and setting: under B8 stands 0.11 OD450.

A further assay addresses T1, human MSLN-R1-his protein. In words: ELISA on coated antigen, no antibody (column none).
Method: as §1
In turn, B1 had an OD450 of 0.08 OD450.
Same read-out and setting: under B2 stands 0.08 OD450.
The molecule B3 displayed an OD450 of 0.07 OD450.
Molecule B4 registered an OD450 of 0.07 OD450.
Same read-out and setting: the value for B5 was 0.07 OD450; that for B6 was 0.06 OD450.
Same read-out and setting: the value for B7 was 0.07 OD450; that for B8 was 0.07 OD450.

The target in a further assay is T1, human MSLN-R1-his protein. In words: ELISA on coated antigen, antibody 100 nM.
Method: as §1
In turn, B1 showed an OD450 of 0.12 OD450.
In turn, B2 returned an OD450 of 0.1 OD450.
B3 had an OD450 of 0.07 OD450.
B4 displayed an OD450 of 0.11 OD450.
In the case of B5, the OD450 worked out at 0.65 OD450.
Still for that read-out and setting: the value for B6 was 0.09 OD450; that for B7 was 0.08 OD450.
B8 displayed an OD450 of 0.11 OD450.

The target of another assay is T2, human MSLN-FL-his protein. In words: ELISA on coated antigen, antibody 100 nM.
Method: as §1
On to B1, for which the OD450 is 0.13 OD450.
The same measure, in the same setting: the value for B2 was 0.12 OD450.
On to B3, for which the OD450 stood at 2.58 OD450.
B4 returned an OD450 of 0.1 OD450.
Still for that read-out and setting: the value for B5 was 2.23 OD450.
B6 gave an OD450 of 2.76 OD450.
On the same count and under the same terms, under B7 stands 2.39 OD450; under B8, 2.17 OD450.

A further assay addresses T1, human MSLN-R1-his protein. As to the kind of experiment: ELISA on coated antigen, antibody 0.0001 nM.
Method: as §1
On to B1, for which the OD450 was 0.07 OD450.
The same measure, in the same setting: under B2 stands 0.07 OD450; under B3, 0.07 OD450.
On to B4, for which the OD450 was found to be 0.07 OD450.
Turning to B5, the OD450 turned out to be 0.06 OD450.
The same measure, in the same setting: the value for B6 was 0.05 OD450; that for B7 was 0.07 OD450.
On the same count and under the same terms, the value for B8 was 0.06 OD450.

For a further assay, the target named is T1, human MSLN-R1-his protein. In words: ELISA on coated antigen, antibody 0.1 nM.
Method: as §1
The molecule B1 registered an OD450 of 0.07 OD450.
The same measure, in the same setting: under B2 stands 0.07 OD450.
In turn, B3 came in with an OD450 of 0.06 OD450.
The same measure, in the same setting: the value for B4 was 0.06 OD450; that for B5 was 0.05 OD450.
The same measure, in the same setting: under B6 stands 0.05 OD450; under B7, 0.06 OD450.
B8 gave an OD450 of 0.06 OD450.

Another assay deals with T1, human MSLN-R1-his protein. As to the kind of experiment: ELISA on coated antigen, antibody 0.001 nM.
Method: as §1
The molecule B1 displayed an OD450 of 0.07 OD450.
In the case of B2, the OD450 is 0.07 OD450.
On the same count and under the same terms, the value for B3 was 0.07 OD450; that for B4 was 0.07 OD450; that for B5 was 0.06 OD450.
The molecule B6 registered an OD450 of 0.05 OD450.
Still for that read-out and setting: the value for B7 was 0.06 OD450; that for B8 was 0.06 OD450.

The next assay concerns the target T2, human MSLN-FL-his protein. In words: ELISA on coated antigen, antibody 0.1 nM.
Method: as §1
B1 came in with an OD450 of 0.07 OD450.
The same measure, in the same setting: under B2 stands 0.08 OD450; under B3, 1.68 OD450; under B4, 0.07 OD450.
B5 yielded an OD450 of 1.63 OD450.
On the same count and under the same terms, the value for B6 was 1.72 OD450; that for B7 was 1.76 OD450.
Turning to B8, the OD450 was found to be 1.59 OD450.

Another assay has as its target T2, human MSLN-FL-his protein. As to the kind of experiment: ELISA on coated antigen, antibody 0.0001 nM.
Method: as §1
In the case of B1, the OD450 came out at 0.06 OD450.
On the same count and under the same terms, the value for B2 was 0.06 OD450.
In turn, B3 yielded an OD450 of 0.07 OD450.
Molecule B4 had an OD450 of 0.06 OD450.
Same read-out and setting: the value for B5 was 0.1 OD450; that for B6 was 0.06 OD450.
The same measure, in the same setting: under B7 stands 0.07 OD450; under B8, 0.07 OD450.

Another assay addresses T2, human MSLN-FL-his protein. In words: ELISA on coated antigen, antibody 1 nM.
Method: as §1
Take B1: the OD450 stood at 0.07 OD450.
B2 gave an OD450 of 0.08 OD450.
On the same count and under the same terms, under B3 stands 1.93 OD450.
For B4, the OD450 was 0.07 OD450.
B5 showed an OD450 of 1.75 OD450.
B6 registered an OD450 of 1.99 OD450.
On the same count and under the same terms, the value for B7 was 1.98 OD450; that for B8 was 1.88 OD450.

A further assay concerns the target T2, human MSLN-FL-his protein. In words: ELISA on coated antigen, antibody 0.01 nM.
Method: as §1
B1 yielded an OD450 of 0.07 OD450.
For B2, the OD450 came out at 0.07 OD450.
On the same count and under the same terms, under B3 stands 0.63 OD450; under B4, 0.07 OD450; under B5, 0.69 OD450.
The same measure, in the same setting: under B6 stands 0.62 OD450; under B7, 0.7 OD450.
Still for that read-out and setting: under B8 stands 0.42 OD450.

The target in the next assay is T2, human MSLN-FL-his protein. As to the kind of experiment: ELISA on coated antigen, no antibody (column none).
Method: as §1
The molecule B1 registered an OD450 of 0.08 OD450.
Regarding B2, the OD450 is 0.08 OD450.
Molecule B3 had an OD450 of 0.08 OD450.
For B4, the OD450 was 0.07 OD450.
Same read-out and setting: under B5 stands 0.08 OD450; under B6, 0.06 OD450.
Molecule B7 had an OD450 of 0.07 OD450.
Molecule B8 displayed an OD450 of 0.08 OD450.

For a further assay, the target named is T1, human MSLN-R1-his protein. As to the kind of experiment: ELISA on coated antigen, antibody 1 nM.
Method: as §1
Consider B1, for which the OD450 stood at 0.07 OD450.
Turning to B2, the OD450 was 0.06 OD450.
B3 returned an OD450 of 0.06 OD450.
For the molecule B4, the OD450 is 0.06 OD450.
B5 yielded an OD450 of 0.06 OD450.
For B6, the OD450 amounted to 0.06 OD450.
B7 gave an OD450 of 0.06 OD450.
With B8, the OD450 was 0.07 OD450.

The target of another assay is T2, human MSLN-FL-his protein. In words: ELISA on coated antigen, antibody 10 nM.
Method: as §1
Consider B1, for which the OD450 was 0.08 OD450.
Molecule B2 yielded an OD450 of 0.11 OD450.
On the same count and under the same terms, under B3 stands 2.06 OD450; under B4, 0.06 OD450.
The same measure, in the same setting: the value for B5 was 1.8 OD450.
On the same count and under the same terms, under B6 stands 2.15 OD450; under B7, 2.11 OD450.
As for B8, the OD450 was 1.97 OD450.

The record behind these values is US20250250357A1 (NANJING ZAIMING PHARMACEUTICAL, published 2025).
